# According to paper PMC9418332, “Perforin-2 clockwise hand-over-hand pre-pore to pore transition mechanism” (Nature Communications, 2022):
# Target: the molecule itself
# Assay: high-speed atomic force microscopy (HS-AFM); pre-pore rings on supported E. coli lipid bilayer, buffer acidified with HCl to ~pH 4.0 in the fluid cell; imaging at 200 ms temporal resolution, room temperature; pre-pore ring openings and pore arcs
protein,measurement,value
"Ectodomain of mPFN2 (Perforin-2) (domain or fragment, mouse (printed as mPFN2), UniProt A1L314 20-652, looked up, Perforin-2 (PFN2, MPEG1), mouse (printed as mPFN2), ectodomain, UniProt A1L314 residues 20-652; Applied as monomers (0.043 mg/ml) and self-assembles on the support; The 1D4 tag is inferred from the resin; also called MPEG1; source: HEK293T or HEK293S cells, transient transfection; purified from the media using anti-1D4 antibody-coupled agarose resin) DKPLGETGTTGFQICKNALKLPVLEVLPGGGWDNLRNVDMGRVMDLTYTNCKTTEDGQYIIPDEVYTIPQKESNLEMNSEVLESWMNYQSTTSLSINTELALFSRVNGKFSTEFQRMKTLQVKDQAVTTRVQVRNRIYTVKTTPTSELSLGFTKALMDICDQLEKNQTKMATYLAELLILNYGTHVITSVDAGAALVQEDHVRSSFLLDNQNSQNTVTASAGIAFLNIVNFKVETDYISQTSLTKDYLSNRTNSRVQSFGGVPFYPGITLETWQKGITNHLVAIDRAGLPLHFFIKPDKLPGLPGPLVKKLSKTVETAVRHYYTFNTHPGCTNVDSPNFNFQANMDDDSCDAKVTNFTFGGVYQECTELSGDVLCQNLEQKNLLTGDFSCPPGYSPVHLLSQTHEEGYSRLECKKKCTLKIFCKTVCEDVFRVAKAEFRAYWCVAAGQVPDNSGLLFGGVFTDKTINPMTNAQSCPAGYIPLNLFESLKVCVSLDYELGFKFSVPFGGFFSCIMGNPLVNSDTAKDVRAPSLKKCPGGFSQHLAVISDGCQVSYCVKAGIFTGGSLLPVRLPPYTKPPLMSQVATNTVIVTNSETARSWIKDPQTNQWKLGEPLELRRAMTVIHGDSNGMSGG",stoichiometry N,16 subunits
